± gives the half width of the 95% confidence interval.

Data set [1] can be described thus: folding stability dG unfold from chymotrypsin proteolysis; higher = more stable. The procedure, abridged:
(§1)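 Designed mini-proteins (under 80 residues, no cysteine) in a PA-tagged cDNA display construct were digested with trypsin and chymotrypsin. Each protease was used at 11 concentrations (threefold dilutions) plus a no-protease condition, followed by sequencing. K50 was inferred by Bayesian fitting of sequencing counts, and unfolding free energy was derived against a sequence-predicted unfolded-state K50 and a shared folded-state K50, per protease or combined. Only designs with AlphaFold2 dimer inter-PAE above 15 were kept.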

Data set [2] is described as follows: folding stability dG unfold (combined trypsin and chymotrypsin); higher = more stable. In outline: as §1
Data set [3] is described as follows: folding stability dG unfold from trypsin proteolysis; higher = more stable. The procedure, abridged:
as §1

Consider “SAGGSAGGSAKKPKKFKITKISTVKNKNGKTYYKLVIEDEKTKKKYVFVFPKNKEEILKALSAGGSAGGSAG [r3_57_TrROS_Hall]”, for which the “folding stability dG unfold” value was found to be 2.53 ± 0.062 kcal/mol in data set [1], 2.45 ± 0.15 kcal/mol in data set [2] and 2 ± 0.061 kcal/mol in data set [3].
In the case of “SAGGSAGGSAKKPTAEEILKKLKLPEGAKIVKIEVEYDKKTKKVTIKIEIKVNGKTYTFEIKSAGGSAGGSA [r18_354_TrROS_Hall]”, the entries for the “folding stability dG unfold” value in data set [1], in data set [2] and in data set [3] were 4.39 ± 0.11 kcal/mol, 3.94 ± 0.18 kcal/mol and 2.81 ± 0.15 kcal/mol, respectively.
In the same order, the values of “SAGGSAGGSAKKTLTVKPGQTVTVKNKKTGKTYTATVEKDKDGNLTVKLENGKTYTINLKDLSAGGSAGGSA [r18_169_TrROS_Hall]” are 2.15 ± 0.078 kcal/mol, 1.8 ± 0.093 kcal/mol and 0.967 ± 0.083 kcal/mol.
In the same order, the values of “SAGGSAGGSAKKVVTVPEDATLEEIEELLKSGEKVTVVIHNKETGKTETLEFDSLEELKAASAGGSAGGSAG [r3_362_TrROS_Hall]” are 1.91 ± 0.16 kcal/mol, 1.53 ± 0.17 kcal/mol and 0.601 ± 0.072 kcal/mol.
In the same order, the values of “SAGGSAGGSAKKYVLLVTYRHPENGETRTVLVEVETEEEVERAVKELAPPEFDEVKVYVLPASAGGSAGGSA [r18_258_TrMRF]” are 2.79 ± 0.046 kcal/mol, 2.83 ± 0.12 kcal/mol and 2.83 ± 0.15 kcal/mol.
In the case of “SAGGSAGGSAKMIFVKNEDGTITMFTLNEDGYLTVTTVTLDKKTKKMTVETKTIKLTDPELLSAGGSAGGSA [r18_503_TrROS_Hall]”, the “folding stability dG unfold” value in data set [1] turned out to be 2.46 ± 0.081 kcal/mol; in data set [2], 2.14 ± 0.17 kcal/mol; in data set [3], 1.16 ± 0.027 kcal/mol.
In the same order, the values of “SAGGSAGGSAKMIIRIRNKNGKIIELTLEEVAKKLGLSKEEMTAEEILKKLKENIEKVEILPSAGGSAGGSA [r18_403_TrROS_Hall]” are 3.18 ± 0.048 kcal/mol, 3.1 ± 0.07 kcal/mol and 2.9 ± 0.047 kcal/mol.
In the same order, the values of “SAGGSAGGSAKMVIVNITLKNKDGKEFTISIEADPSVIKNIIKKLFNAKINKIEIYPLSEALSAGGSAGGSA [r18_107_TrMRF]” are 2.21 ± 0.08 kcal/mol, 2.28 ± 0.15 kcal/mol and 2.49 ± 0.11 kcal/mol.
With “SAGGSAGGSAKPKPVETVEVTVTGKDGKKYKVTVVYDEKTGKLYVKYNGKIYKVDSLEEALKSAGGSAGGSA [r18_67_TrROS_Hall]”, the results for the “folding stability dG unfold” value in data set [1], in data set [2] and in data set [3] were 4.12 ± 0.073 kcal/mol, 3.86 ± 0.2 kcal/mol and 2.44 ± 0.19 kcal/mol, respectively.
For the sequence “SAGGSAGGSAKPKVVLVEYDEKTGKFKIVFPDGKELEITGLTPEQIKELAKSLGADYVIIESAGGSAGGSAG [r3_78_TrMRF]”, the “folding stability dG unfold” value was determined as 4.06 ± 0.098 kcal/mol in data set [1], 3.83 ± 0.09 kcal/mol in data set [2] and 3.38 ± 0.12 kcal/mol in data set [3].
In the same order, the values of “SAGGSAGGSAKPLKKLVLLLKVKGPFEEVEKILNEEFGVKKIVAFKDPETDEVYALIYLGDPSAGGSAGGSA [r18_275_TrMRF]” are 2.86 ± 0.04 kcal/mol, 2.62 ± 0.085 kcal/mol and 2.23 ± 0.052 kcal/mol.
In the same order, the values of “SAGGSAGGSAKPNKKFKFELVEVKEIEIYDKETNEKVYKISVAKVRLEDGSLLTFISIEEKSAGGSAGGSAG [r3_166_TrROS_Hall]” are 3.78 ± 0.059 kcal/mol, 3.19 ± 0.22 kcal/mol and 2.34 ± 0.085 kcal/mol.
As for “SAGGSAGGSAKPPVTLTILVKNPETGEWVRLEVEFLPDGTVKITVTNPNGEKYTFTFKLPPSAGGSAGGSAG [r3_61_TrROS_Hall]”, the “folding stability dG unfold” value in data set [1] came to 5.6 ± 0.16 kcal/mol; in data set [2], 5.6 ± 0.27 kcal/mol; in data set [3], 3.67 ± 0.18 kcal/mol.
As to “SAGGSAGGSAKPRVKIVEVDEEKKRVLVKTEDGEVVELEGLTPEQIEELAKALGADEVELVSAGGSAGGSAG [r3_78_TrROS_Hall]”, the “folding stability dG unfold” value in data set [1] worked out at 1.53 ± 0.095 kcal/mol; in data set [2], 1.12 ± 0.17 kcal/mol; in data set [3] it was 0.174 ± 0.07 kcal/mol.
Take “SAGGSAGGSAKPTYRVLVKNEDGEVLEAEVKVVDGKVEVTVNGKVYTFPKGAKIEIVKIEPVSAGGSAGGSA [r18_144_TrROS_Hall]”: the “folding stability dG unfold” value came out at 2.92 ± 0.054 kcal/mol in data set [1], 3.08 ± 0.11 kcal/mol in data set [2] and 3.34 ± 0.2 kcal/mol in data set [3].
In the same order, the values of “SAGGSAGGSAKTITITVKPEDMTEEELKEKIAEELGIDPEEIEIVKVEKLPNGEVKVTIKIKSAGGSAGGSA [r18_118_TrROS_Hall]” are 1.93 ± 0.11 kcal/mol, 3.08 ± 0.16 kcal/mol and 3.59 ± 0.17 kcal/mol.
Consider “SAGGSAGGSAKTVVINIKDLKLSKDGKLTVEEIKKRIKELLKKKGIKKVTVKTVEELLKALKSAGGSAGGSA [r18_72_TrROS_Hall]”, for which the “folding stability dG unfold” value in data set [1] worked out at 1.41 ± 0.086 kcal/mol; in data set [2], 1.26 ± 0.074 kcal/mol; in data set [3] it was 0.898 ± 0.062 kcal/mol.
For the sequence “SAGGSAGGSAKTYEVKITVTNPNGEKKEITLEVEAETEEELLAAIKALAPPGAKVEIEIREVSAGGSAGGSA [r18_60_TrROS_Hall]”, the “folding stability dG unfold” value in data set [1] was 3.67 ± 0.075 kcal/mol; in data set [2] it was 4 ± 0.13 kcal/mol; in data set [3], 4.33 ± 0.28 kcal/mol.
With “SAGGSAGGSAKVKAEIEYDPATGKITIKLITEDERGGKTEEAEITIPIPIPAPPAPPADVDKSAGGSAGGSA [r18_361_TrMRF]”, the results for the “folding stability dG unfold” value in data set [1], in data set [2] and in data set [3] were 1.69 ± 0.15 kcal/mol, 1.27 ± 0.12 kcal/mol and -0.0238 ± 0.12 kcal/mol, respectively.
In the same order, the values of “SAGGSAGGSAKVKIVIKNENGEEFEIEMSEEELKKKLKPGDKVKIKIEKVNGKLKITIEKESAGGSAGGSAG [r3_86_TrROS_Hall]” are 2.11 ± 0.16 kcal/mol, 2.02 ± 0.28 kcal/mol and 1.17 ± 0.12 kcal/mol.
In the same order, the values of “SAGGSAGGSAKYILITAPKDNEEKVLEIAEELEKKYGVKLHKVERLPDGTVKALVEIFAPEKSAGGSAGGSA [r18_351_TrMRF]” are 0.674 ± 0.17 kcal/mol, 0.438 ± 0.14 kcal/mol and 0.057 ± 0.073 kcal/mol.
In the same order, the values of “SAGGSAGGSAKYITIFFWGSVEEALKSIPIPPGFKVEIDNIHRNPDGWMWVMITIEIPPNMKSAGGSAGGSA [r18_510_TrROS]” are 4.36 ± 0.12 kcal/mol, 4.28 ± 0.22 kcal/mol and 2.68 ± 0.088 kcal/mol.
Turning to “SAGGSAGGSALDDFKIEEVQYDPDGNTIRFIFKFPGQVWILRIRMPKNGKMEIEWIPADDISAGGSAGGSAG [r3_167_TrROS]”, the entries for the “folding stability dG unfold” value in data set [1], in data set [2] and in data set [3] were 4.36 ± 0.23 kcal/mol, 4.36 ± 0.18 kcal/mol and 3.96 ± 0.21 kcal/mol, respectively.
Regarding “SAGGSAGGSALEIPFEVVDEKDFLLEGDYIVRVAELKNGLRALAIYDPKTGKVLVIVSPGGSAGGSAGGSAG [r3_438_TrMRF]”, the “folding stability dG unfold” value in data set [1] is 2.07 ± 0.057 kcal/mol; in data set [2], 2.17 ± 0.17 kcal/mol; in data set [3], 1.92 ± 0.15 kcal/mol.
In the same order, the values of “SAGGSAGGSALKPGEPITIIFLFKEPNGRPYIMVIEIEVNPDGGIKIKGMEMITLEDLDKISAGGSAGGSAG [r3_212_TrROS]” are 4.54 ± 0.19 kcal/mol, 4.43 ± 0.25 kcal/mol and 2.97 ± 0.21 kcal/mol.
For “SAGGSAGGSALPEAEVLEVRFSPDGRRVDAVLRLDGELLVLRIDFPPDGTARIELYPAEDISAGGSAGGSAG [r3_167_TrMRF]”, the figures for the “folding stability dG unfold” value in data set [1], in data set [2] and in data set [3] were 2.43 ± 0.068 kcal/mol, 2.07 ± 0.13 kcal/mol and 1.05 ± 0.065 kcal/mol, respectively.
In the case of “SAGGSAGGSAMEILSKEIIPNNDLIIIDIKVKKKNKEYIYKLIIKGDKIIKISEIEIDDAPSAGGSAGGSAG [r3_48_TrMRF]”, the “folding stability dG unfold” value came out at 2.5 ± 0.081 kcal/mol in data set [1], 2.15 ± 0.26 kcal/mol in data set [2] and 1.37 ± 0.13 kcal/mol in data set [3].
Consider “SAGGSAGGSAMIEISSYTLPNGELVVEVTIPDPNSDKTTTLRGKYSSLEEAREEAEKLYLQSAGGSAGGSAG [r3_174_JUSTAS]”, for which the “folding stability dG unfold” value in data set [1] stood at 1.84 ± 0.12 kcal/mol; in data set [2], 1.69 ± 0.12 kcal/mol; in data set [3], 1.52 ± 0.051 kcal/mol.
Consider “SAGGSAGGSAMITTYDPKTGLVYELVPDPVPGVGVERLVVRVVTVEEFPDAIVRKVEVRPESAGGSAGGSAG [r3_409_JUSTAS]”, for which the “folding stability dG unfold” value in data set [1] is 1.01 ± 0.074 kcal/mol; in data set [2], 0.67 ± 0.14 kcal/mol; in data set [3] it was -0.211 ± 0.22 kcal/mol.
In the same order, the values of “SAGGSAGGSAMIVKEFVTYDPSTGTRTRTTVTLELYDSPEGGAVVVLEEEVDPVGPLPPLESAGGSAGGSAG [r3_397_JUSTAS]” are 0.000665 ± 0.17 kcal/mol, 0.323 ± 0.12 kcal/mol and 0.704 ± 0.062 kcal/mol.
In the same order, the values of “SAGGSAGGSAMKIEIEVDPKTNVIYIRVNGLVYRFTKSEDGYIYIEVYDKNGKLIETFRLKLSAGGSAGGSA [r18_333_TrROS_Hall]” are 4.83 ± 0.1 kcal/mol, 4.4 ± 0.18 kcal/mol and 3.52 ± 0.13 kcal/mol.
In the same order, the values of “SAGGSAGGSAMKILSVTEEVLPNGTRVVRVTVKLPTPKTREIVVSPEVVEAGRLDEVVEELLSAGGSAGGSA [r18_129_JUSTAS]” are 1.82 ± 0.031 kcal/mol, 1.66 ± 0.062 kcal/mol and 1.38 ± 0.033 kcal/mol.
On to “SAGGSAGGSAMKLEVFPVPDGQIAVFEDADGNIRVIGVPEPNLSISDIAKIALDLGADSVELSAGGSAGGSA [r18_83_TrMRF]”, for which the “folding stability dG unfold” value is -0.45 ± 0.21 kcal/mol in data set [1], 0.155 ± 0.16 kcal/mol in data set [2] and 0.451 ± 0.053 kcal/mol in data set [3].
For “SAGGSAGGSAMKPVPFEVLSVSYPVLPNGTRIRLVEIKFPETGEVKWIELSPDDPVIKALLSAGGSAGGSAG [r3_57_JUSTAS]”, the “folding stability dG unfold” value in data set [1] came to 1.899 ± 0.011 kcal/mol; in data set [2], 2.06 ± 0.086 kcal/mol; in data set [3], 2.27 ± 0.029 kcal/mol.
In the same order, the values of “SAGGSAGGSAMKTFTKTFSSPEEAERAAEEIKEKLEKEGKKVKITFEKPETDTYIVTITIESAGGSAGGSAG [r3_211_JUSTAS]” are 3.93 ± 0.12 kcal/mol, 3.82 ± 0.19 kcal/mol and 3.44 ± 0.16 kcal/mol.

For the origin of these results see the supplement of paper PMC12764529.
